Molecular target: the molecule itself
Assay: SEC

B1: recombinant N-terminal cleavable His-tagged E. coli enolase (enzyme)
chain: MSKIVKIIGREIIDSRGNPTVEAEVHLEGGFVGMAAAPSGASTGSREALELRDGDKSRFLGKGVTKAVAAVNGPIAQALIGKDAKDQAGIDKIMIDLDGTENKSKFGANAILAVSLANAKAAAAAKGMPLYEHIAELNGTPGKYSMPVPMMNIINGGEHADNNVDIQEFMIQPVGAKTVKEAIRMGSEVFHHLAKVLKAKGMNTAVGDEGGYAPNLGSNAEALAVIAEAVKAAGYELGKDITLAMDCAASEFYKDGKYVLAGEGNKAFTSEEFTHFLEELTKQYPIVSIEDGLDESDWDGFAYQTKVLGDKIQLVGDDLFVTNTKILKEGIEKGIANSILIKFNQIGSLTETLAAIKMAKDAGYTAVISHRSGETEDATIADLAVGTAAGQIKTGSMSRSDRVAKYNQLIRIEEALGEKAPYNGRKEIKGQA
B1 was tested. Which “stoichiometry N” value did it give?
The value was 2.

From article PMC6511404 (Biochemistry, 2019)
